PMC4807065

Molecular target: large catalase (CAT) from Aspergillus terreus MTCC 6324 (Aspergillus terreus MTCC 6324)
Experiment: SEC; HiPrep Sephacryl S-300 HR column, 50 mM sodium phosphate buffer pH 7.5; native mass against gel filtration standards (29-669 kDa), compared with the subunit mass from SDS-PAGE

## large catalase (CAT) from Aspergillus terreus MTCC 6324 (enzyme)
  stoichiometry N: 4
